Measured values: patent publication US20260008852A1 (CRYSTAL BIOSCIENCE, published 2026)

T1: B7-H3 on CHO-K1 cells stably transfected with B7-H3 (GenScript #M00536) (UniProt Q5ZPR3 29-534, limits assumed)
T1 sequence (looked up): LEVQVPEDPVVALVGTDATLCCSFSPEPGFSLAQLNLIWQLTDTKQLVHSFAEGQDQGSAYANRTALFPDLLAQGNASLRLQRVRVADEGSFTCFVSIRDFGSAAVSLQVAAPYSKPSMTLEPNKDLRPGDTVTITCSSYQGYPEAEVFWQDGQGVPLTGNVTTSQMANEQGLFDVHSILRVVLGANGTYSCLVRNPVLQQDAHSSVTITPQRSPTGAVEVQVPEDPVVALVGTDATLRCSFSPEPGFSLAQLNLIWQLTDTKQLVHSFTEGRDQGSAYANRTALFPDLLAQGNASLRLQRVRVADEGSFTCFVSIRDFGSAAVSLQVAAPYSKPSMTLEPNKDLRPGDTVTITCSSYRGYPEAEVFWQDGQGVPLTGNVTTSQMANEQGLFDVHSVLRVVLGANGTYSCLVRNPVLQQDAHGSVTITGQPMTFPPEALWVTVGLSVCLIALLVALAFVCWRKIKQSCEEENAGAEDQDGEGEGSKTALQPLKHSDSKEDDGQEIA

B1: 40579p1.G1 IgG (antibody, V domains shown)
VH: EVQLLESGGGLVQPGGSLRLSCAASGFNFSSYWMSWVRQAPGKGLEWVSGISISYGGNAYYADSVKGRFTVSRDNSKNTLYLQMNSLRAEDTAVYYCGRDRSPYQYRSMDVWGQGTTVTVSS
VL: EIVLTQSPGTLSLSPGERATLSCRASQSIRSDLAWYQQKPGQAPRLLIYGASSRATGIPARFSGSGSGTEFTLTISSLQSEDFAVYYCQQYNNWPPLTFGGGTKVEIK
B2: 40579p1.H7 IgG (antibody, V domains shown)
VH: EVQLLESGGDLVQPGGSLRLSCAASGFNFSSYWMSWVRQAPGKGLEWVSGISISYGGNAYYADSVKGRFTVSRDNSKNTLYLQMNSLRAEDTAVYYCGRDRSPYQYRSMDVWGQGTTVTVSS
VL: EIVLTQSPGTLSLSPGERATLSCRASQSIRSDLAWYQQKPGQAPRLLIYGASSRATGIPARFSGSGSGTEFTLTISSLQSEDFAVYYCQQYNNWPPLTFGGGTKVEIK
B3: 40633p1.1.D11 IgG (antibody, V domains shown)
VH: EVQLLESGGGLVQPGGSLRLSCAASGFTFRSYAMSWVRQAPGKGLEWVAYIGSSGGTTYYADSVKGRFTISRDNSKNTLYLQMNSLRAEDTAVYYCVKESYYYMDVWGQGTTVTVSS
VL: QSVLTQPPSASGTPGQRVTISCSATISNIDINRVSWYQQLPGTAPKLLIFNSQRPSGVPDRFSGSKSGTSASLAISGLQSEDEADYYCATWDDSLNSWVFGGGTKLTVL
B4: 40633p1.1.C11 IgG (antibody, V domains shown)
VH: EVQLLESGGGLVQPGGSLRLSCAASGFTFSSYWMSWVRQAPGKGLEWVAGINRNGGTTYYADSVKGRFTISRDNSKNTLYLQMNSLRAEDTAVYYCARWNDYDIMDVWGQGTTVTVSS
VL: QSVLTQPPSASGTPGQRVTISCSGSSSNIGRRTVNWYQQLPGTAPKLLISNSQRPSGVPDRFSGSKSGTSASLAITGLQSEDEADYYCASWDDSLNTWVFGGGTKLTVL
B5: 40633p1.1.E4 IgG (antibody, V domains shown)
VH: EVQLLESGGGLVQPGGSLRLSCAASGFTFSSYWMSWVRQAPGKGLEWVSGISSSGSATYYADSVKGRFTISRDNSKNTLYLQMNSLRAEDTAVYYCARWNDYDIMDVWGQGTTVTVSS
VL: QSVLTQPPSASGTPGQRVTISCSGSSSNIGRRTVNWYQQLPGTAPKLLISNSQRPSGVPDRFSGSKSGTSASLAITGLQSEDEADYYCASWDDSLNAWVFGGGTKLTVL
B6: 40633p1.1.A7 IgG (antibody, V domains shown)
VH: EVQLLESGGGLVQPGGSLRLSCAASGFTVSYYGMSWVRQAPGKGLEWVSAIKQDGSEKYYADSVKGRFTISRDNSKNTLYLQMNSLRAEDTAVYYCARHWNDYSNAMNVWGQGTTVTVSS
VL: QSVLTQPPSASGTPGQRVTISCSGSTSNIGRESVYWYQQLPGTAPKLLIYTIDQRPSGVPDRFSGSKSGTSASLAISGLQSEDEAVYYCASWDASLNGWVFGGGTKLTVL
B7: 40633p1.1.E3 IgG (antibody, V domains shown)
VH: EVQLLESGGGLVQPGGSLRLSCAASGFTVSYYGMSWVRQAPGKGLEWVSAIKQDGSEKYYADSVKGRFTISRDNSKNTLYLQMNSLRAEDTAVYYCARHWNDYSNAMNVWGQGTTVTVSS
VL: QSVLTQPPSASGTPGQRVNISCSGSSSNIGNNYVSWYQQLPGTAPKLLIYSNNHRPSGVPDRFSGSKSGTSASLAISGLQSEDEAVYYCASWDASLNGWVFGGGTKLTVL
B8: 40633p1.1.B3 IgG (antibody, V domains shown)
VH: EVQLLESGGGLVQPGGSLRLSCAASGFTVSYYGMSWVRQAPGKGLEWVSAIKQDGSEKYYADSVKGRFTISRDNSKNTLYLQMNSLRAEDTAVYYCARHWNDYSNAMNVWGQGTTVTVSS
VL: QSVLTQPPSASGTPGQRVTISCSGSTSNIGRESVYWYQQLPGTAPKLLIYTIDQRPSGVPDRFSGSKSGTSASLAISGLQSEDEADYYCGTWDDSLNAWVFGGGTKLTVL

These binders were tested against T1, B7-H3 on CHO-K1 cells stably … (assay: cell-based or functional assay).

**Q.** B1 was tested. Which “ADCC reporter assay, EC50 Value, CHOK1/B7-H3 cells” value (from here on “ADCC reporter assay, EC50 Value”) did it give?
**A.** 0.0115 mg/L

**Q.** What about the “ADCC reporter assay, Max RLU, CHOK1/B7-H3 cells” value (from here on “ADCC reporter assay, Max RLU”) of the same binder?
**A.** 806000 RLU

**Q.** B2 was tested. Which “ADCC reporter assay, EC50 Value” value did it give?
**A.** 0.0126 mg/L

**Q.** What about the “ADCC reporter assay, Max RLU” value of the same binder?
**A.** 833000 RLU

**Q.** Which “ADCC reporter assay, EC50 Value” value does the source give for B3 here?
**A.** 0.0119 mg/L

**Q.** And the “ADCC reporter assay, Max RLU” value?
**A.** 656000 RLU

**Q.** Which results are given for B4?
**A.** ADCC reporter assay, EC50 Value, CHOK1/B7-H3 cells: 0.0173 mg/L; ADCC reporter assay, Max RLU, CHOK1/B7-H3 cells: 719000 RLU

**Q.** For B5, which “ADCC reporter assay, EC50 Value” value is on record?
**A.** 0.0194 mg/L

**Q.** And the “ADCC reporter assay, Max RLU” value?
**A.** 676000 RLU

**Q.** Which “ADCC reporter assay, EC50 Value” value does the source give for B6 here?
**A.** ~0.0125 mg/L

**Q.** And the “ADCC reporter assay, Max RLU” value?
**A.** 634000 RLU

**Q.** Which “ADCC reporter assay, EC50 Value” value does the source give for B7 here?
**A.** 0.135 mg/L

**Q.** And the “ADCC reporter assay, Max RLU” value?
**A.** 625000 RLU

**Q.** How did the “ADCC reporter assay, EC50 Value” value turn out when B8 was run?
**A.** 0.0227 mg/L

**Q.** And the “ADCC reporter assay, Max RLU” value?
**A.** 680000 RLU
